Assay results taken from the Human Domainome abundance scans (Beltran et al. 2025).
± gives the uncertainty stated by the source.

B1: Transcription intermediary factor 1-beta, residues 620 to 671; numbered along this chain, Q13263 (parent)
chain: TLDDSATICRVCQKPGDLVMCNQCEFCFHLDCHLPALQDVPGEEWSCSLCHV

Variants of: B1
Test: abundance fitness (aPCA) (normalised: wild type 0, dead -1); higher = more abundant; growth selection in yeast, the domain comes from the species named
Conditions: Homo sapiens

Variant	abundance fitness
C9V	-0.902 ± 0.14
C9R	-1.18 ± 0.2
C9N	-0.469 ± 0.23
C9M	-0.706 ± 0.32
C9I	-0.955 ± 0.3
C9W	-0.905 ± 0.22
C9T	-0.926 ± 0.23
C9Y	-1 ± 0.21
C9Q	-1.12 ± 0.48
C9A	-0.861 ± 0.15
C9P	-0.324 ± 0.11
C9G	-0.931 ± 0.11
C9K	-0.802 ± 0.42
C9S	-0.848 ± 0.14
C12Y	-1 ± 0.26
D3L	-0.242 ± 0.11
D3C	-0.534 ± 0.17
D3A	-0.723 ± 0.14
D3G	-0.411 ± 0.099
D3F	0.053 ± 0.12
D3W	-0.302 ± 0.12
D3E	0.13 ± 0.13
D3Q	-0.603 ± 0.18
D3H	-0.205 ± 0.15

Variant	abundance fitness
D3N	-0.112 ± 0.14
D3V	-0.487 ± 0.1
D3R	-0.294 ± 0.096
D3S	-0.223 ± 0.11
D3M	-0.529 ± 0.16
D3I	-0.292 ± 0.2
D3T	-0.661 ± 0.15
D3K	0.027 ± 0.2
D4L	0.135 ± 0.081
D4H	-0.035 ± 0.26
D4V	0.148 ± 0.093
D4R	0.015 ± 0.072
D4S	0.016 ± 0.086
D4Q	-0.294 ± 0.17
D4C	0.201 ± 0.1
D4P	-0.155 ± 0.12
D4F	-0.19 ± 0.15
D4N	0.074 ± 0.11
D4K	0.284 ± 0.16
D4M	0.083 ± 0.096
D4A	-0.141 ± 0.1
D4G	-0.219 ± 0.082
L2M	0.021 ± 0.17
L2V	-0.13 ± 0.1

Variant	abundance fitness
L2S	-0.004 ± 0.14
L2K	-0.056 ± 0.33
L2H	-0.678 ± 0.4
L2D	-0.078 ± 0.17
L2R	-0.252 ± 0.12
L2N	0.017 ± 0.25
L2I	-0.112 ± 0.19
L2Y	0.045 ± 0.17
L2P	0.179 ± 0.27
L2W	-0.323 ± 0.13
L2C	-0.198 ± 0.18
L2F	-0.168 ± 0.15
L2Q	0.016 ± 0.14
L2E	0.021 ± 0.17
L2G	-0.604 ± 0.16
G16T	-0.754 ± 0.3
G16V	-0.827 ± 0.15
G16E	-0.307 ± 0.19
G16P	-0.945 ± 0.28
G16I	-0.534 ± 0.3
G16N	0.137 ± 0.26
G16L	-0.432 ± 0.12
G16C	-1.11 ± 0.23
G16D	0.076 ± 0.29

Variant	abundance fitness
G16M	-0.553 ± 0.2
G16H	-0.214 ± 0.17
G16K	-0.258 ± 0.32
G16F	-0.524 ± 0.31
G16Y	-0.879 ± 0.41
G16A	-0.639 ± 0.15
G16Q	-0.477 ± 0.23
G16S	-0.091 ± 0.14
G16W	-0.791 ± 0.13
G16R	-0.389 ± 0.11
L18R	-0.889 ± 0.13
L18W	-0.834 ± 0.17
L18E	-0.374 ± 0.14
L18M	-0.599 ± 0.25
L18N	-0.662 ± 0.23
L18P	-0.729 ± 0.24
L18H	-0.664 ± 0.4
L18C	-0.317 ± 0.15
L18Y	-0.632 ± 0.24
L18F	-0.697 ± 0.25
L18G	-0.642 ± 0.12
L18Q	-0.483 ± 0.3
L18K	-0.636 ± 0.23
L18T	0.162 ± 0.15

Variant	abundance fitness
L18I	-0.371 ± 0.15
L18A	-0.559 ± 0.13
L18S	-0.789 ± 0.15
T1G	-0.602 ± 0.27
T1N	0.184 ± 0.36
T1R	-0.495 ± 0.23
T1D	0.178 ± 0.35
T1E	-0.11 ± 0.45
T1H	-0.593 ± 0.34
T1S	-0.096 ± 0.17
T1W	-0.8 ± 0.33
T1K	0.109 ± 0.24
T1M	-0.363 ± 0.32
T1A	0.314 ± 0.28
T1V	-0.043 ± 0.27
A6L	-0.202 ± 0.081
A6C	-0.973 ± 0.21
A6M	-0.069 ± 0.19
A6S	-0.223 ± 0.097
A6R	-0.275 ± 0.11
A6Q	-0.261 ± 0.13
A6V	-0.35 ± 0.08
A6E	0.25 ± 0.12
A6D	-0.274 ± 0.22

Variant	abundance fitness
A6H	-0.303 ± 0.17
A6W	-0.86 ± 0.17
A6P	-0.234 ± 0.16
R10W	-0.574 ± 0.14
R10A	-0.327 ± 0.12
R10T	-0.037 ± 0.13
R10E	-0.476 ± 0.17
R10H	0.136 ± 0.2
R10M	-0.113 ± 0.13
R10N	0.094 ± 0.18
R10C	-0.363 ± 0.16
R10D	-0.108 ± 0.17
R10Y	-0.257 ± 0.22
R10I	-0.866 ± 0.28
R10Q	-0.296 ± 0.13
R10K	0.206 ± 0.15
R10V	-0.143 ± 0.098
R10G	-0.291 ± 0.1
R10F	-0.271 ± 0.16
R10S	0.161 ± 0.13
R10P	-0.301 ± 0.13
T7G	-0.207 ± 0.08
T7W	-0.429 ± 0.15
T7F	-0.383 ± 0.12

Variant	abundance fitness
T7I	-0.013 ± 0.13
T7K	-0.022 ± 0.13
T7N	-0.176 ± 0.15
T7V	-0.066 ± 0.088
T7R	0.077 ± 0.11
T7H	-0.138 ± 0.14
T7C	-0.451 ± 0.16
T7E	0.004 ± 0.13
T7S	-0.079 ± 0.09
T7D	0.024 ± 0.12
T7Y	0.007 ± 0.15
T7L	-0.41 ± 0.12
T7M	-0.143 ± 0.15
T7P	-0.204 ± 0.19
T7Q	-0.118 ± 0.27
T7A	-0.123 ± 0.098
I8E	-0.065 ± 0.11
I8Q	0.085 ± 0.15
I8N	-0.045 ± 0.17
I8G	-0.418 ± 0.078
I8F	0.087 ± 0.22
I8A	-0.099 ± 0.095
I8V	-0.095 ± 0.081
